Source: paper PMC5076501

Assays:
HSP70-1A, P0DMV8 = experiment: co-immunoprecipitation (anti-GFP IP) with immunoblot densitometry; conditions: chain shown with the change; detergent lysates from stably transfected HEK293 cells; three independent experiments; parent: est. 0.32; read off a plot
calnexin, P27824 = biological target: T1, calnexin, P27824; experiment: as above; conditions: chain shown with the change; detergent lysates from stably transfected HEK293 cells; three independent experiments; parent: est. 0.73; read off a plot
T1 chain: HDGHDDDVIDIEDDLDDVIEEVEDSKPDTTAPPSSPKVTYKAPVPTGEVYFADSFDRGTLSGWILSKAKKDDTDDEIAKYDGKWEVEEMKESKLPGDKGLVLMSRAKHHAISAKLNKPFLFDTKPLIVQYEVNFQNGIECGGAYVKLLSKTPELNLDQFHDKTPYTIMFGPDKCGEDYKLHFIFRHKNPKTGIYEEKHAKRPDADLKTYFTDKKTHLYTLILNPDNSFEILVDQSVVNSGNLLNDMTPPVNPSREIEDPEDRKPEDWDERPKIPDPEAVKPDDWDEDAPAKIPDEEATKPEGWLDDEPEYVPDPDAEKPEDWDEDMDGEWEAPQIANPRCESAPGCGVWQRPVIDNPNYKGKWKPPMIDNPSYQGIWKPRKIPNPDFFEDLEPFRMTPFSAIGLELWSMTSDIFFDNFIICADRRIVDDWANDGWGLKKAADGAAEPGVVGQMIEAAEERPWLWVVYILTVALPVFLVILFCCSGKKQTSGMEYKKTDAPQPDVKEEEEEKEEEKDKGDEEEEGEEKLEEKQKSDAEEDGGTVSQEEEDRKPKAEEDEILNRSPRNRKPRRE

HSP70-1A, P0DMV8, sequence (P0DMV8 whole entry): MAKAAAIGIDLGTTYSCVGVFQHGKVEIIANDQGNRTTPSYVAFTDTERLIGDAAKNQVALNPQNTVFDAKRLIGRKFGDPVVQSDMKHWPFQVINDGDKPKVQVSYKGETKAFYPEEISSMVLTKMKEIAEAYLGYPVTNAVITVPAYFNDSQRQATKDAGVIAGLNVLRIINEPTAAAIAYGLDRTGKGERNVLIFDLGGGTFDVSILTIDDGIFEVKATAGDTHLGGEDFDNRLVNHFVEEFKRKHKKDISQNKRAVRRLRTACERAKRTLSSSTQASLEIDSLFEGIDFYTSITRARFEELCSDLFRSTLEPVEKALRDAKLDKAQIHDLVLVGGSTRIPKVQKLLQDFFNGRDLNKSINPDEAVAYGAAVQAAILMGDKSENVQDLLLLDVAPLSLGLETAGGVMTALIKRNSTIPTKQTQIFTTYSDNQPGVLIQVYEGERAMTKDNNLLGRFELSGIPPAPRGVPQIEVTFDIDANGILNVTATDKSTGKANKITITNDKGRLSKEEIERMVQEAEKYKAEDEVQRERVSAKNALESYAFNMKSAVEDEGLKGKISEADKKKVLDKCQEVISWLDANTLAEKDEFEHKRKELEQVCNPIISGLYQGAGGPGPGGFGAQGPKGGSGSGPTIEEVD

response (integrated density (chaperones/DAT)) (HSP70-1A, P0DMV8): 0.73
response (integrated density (chaperones/DAT)) (calnexin, P27824): 1.7
B1: YFP-tagged wild-type Drosophila melanogaster dopamine transporter, Q7K4Y6 G108Q (protein)
chain: MSPTGHISKSKTPTPHDNDNNSISDERETWSGKVDFLLSVIGFAVDLANVWRFPYLCYKNGGGAFLVPYGIMLVVGGIPLFYMELALGQHNRKGAITCWGRLVPLFKQIGYAVVLIAFYVDFYYNVIIAWSLRFFFASFTNSLPWTSCNNIWNTPNCRPFESQNASRVPVIGNYSDLYAMGNQSLLYNETYMNGSSLDTSAVGHVEGFQSAASEYFNRYILELNRSEGIHDLGAIKWDMALCLLIVYLICYFSLWKGISTSGKVVWFTALFPYAVLLILLIRGLTLPGSFLGIQYYLTPNFSAIYKAEVWVDAATQVFFSLGPGFGVLLAYASYNKYHNNVYKDALLTSFINSATSFIAGFVIFSVLGYMAHTLGVRIEDVATEGPGLVFVVYPAAIATMPASTFWALIFFMMLLTLGLDSSFGGSEAIITALSDEFPKIKRNRELFVAGLFSLYFVVGLASCTQGGFYFFHLLDRYAAGYSILVAVFFEAIAVSWIYGTNRFSEDIRDMIGFPPGRYWQVCWRFVAPIFLLFITVYGLIGYEPLTYADYVYPSWANALGWCIAGSSVVMIPAVAIFKLLSTPGSLRQRFTILTTPWRDQQSMAMVLNGVTTEVTVVRLTDTETAKEPVDV
